Results on one molecule are retold here after article PMC7355856 (2020).

The target in test [1] is T1, α-synuclein (human, UniProt P37840 1-140). Briefly: SPR. On the technique in general: Surface plasmon resonance follows binding to a sensor surface in real time, without labels.
Test [2] addresses T1, α-synuclein. Briefly: SPR. This is another data set of the same source.

B1: prolyl oligopeptidase (POP) (enzyme)
chain: MLSLQYPDVYRDETAVQDYHGHKICDPYAWLEDPDSEQTKAFVEAQNKITVPFLEQCPIRGLYKERMTELYDYPKYSCHFKKGKRYFYFYNTGLQNQRVLYVQDSLEGEARVFLDPNILSDDGTVALRGYAFSEDGEYFAYGLSASGSDWVTIKFMKVDGAKELPDVLERVKFSCMAWTHDGKGMFYNSYPQQDGKSDGTETSTNLHQKLYYHVLGTDQSEDILCAEFPDEPKWMGGAELSDDGRYVLLSIREGCDPVNRLWYCDLQQESSGIAGILKWVKLIDNFEGEYDYVTNEGTVFTFKTNRQSPNYRVINIDFRDPEESKWKVLVPEHEKDVLEWIACVRSNFLVLCYLHDVKNILQLHDLTTGALLKTFPLDVGSIVGYSGQKKDTEIFYQFTSFLSPGIIYHCDLTKEELEPRVFREVTVKGIDASDYQTVQIFYPSKDGTKIPMFIVHKKGIKLDGSHPAFLYGYGGFNISITPNYSVSRLIFVRHMGGILAVANIRGGGEYGETWHKGGILANKQNCFDDFQCAAEYLIKEGYTSPKRLTINGGSNGGLLVAACANQRPDLFGCVIAQVGVMDMLKFHKYTIGHAWTTDYGCSDSKQHFEWLVKYSPLHNVKLPEADDIQYPSMLLLTADHDDRVVPLHSLKFIATLQYIVGRSRKQSNPLLIHVDTKAGHGAGKPTAKVIEEVSDMFAFIARCLNVDWIP
In the test with α-synuclein [1], B1 gave a Kd of 5.32 nM. Further, the koff in the test with α-synuclein [2] stood at 0.00118 s⁻¹.

Broadly, the Kd is the constant that tells how readily two partners part at equilibrium. A higher Kd goes with weaker binding. In general, koff refers to the first-order rate constant of dissociation.
